The record followed here is publication PMC13076993.

Assay [1] concerns the target human PD-1 (programmed cell death 1) on Jurkat cells (human) (UniProt Q15116).
The target is the same in assay [2]. The source holds these as a separate data set.

Chain of UniProt Q15116 (Q15116 25-288): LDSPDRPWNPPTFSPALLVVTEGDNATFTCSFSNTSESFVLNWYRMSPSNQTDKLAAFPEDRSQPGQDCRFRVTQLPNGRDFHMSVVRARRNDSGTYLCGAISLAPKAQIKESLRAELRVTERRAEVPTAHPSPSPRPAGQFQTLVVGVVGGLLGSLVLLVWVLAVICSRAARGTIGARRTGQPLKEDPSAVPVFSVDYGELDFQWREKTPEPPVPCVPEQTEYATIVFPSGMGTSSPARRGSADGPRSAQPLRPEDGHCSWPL

“human PD-L1 extracellular domain (from E. coli) (from UniProt Q9NZQ7 19-238) (ligand)”: the IL-2 secretion of Jurkat cells stimulated with CO-L1 beads (CD3 antibody and PD-L1) in the presence of soluble S-PDL1 at various concentrations in assay [1] turned out to be 100 µg/mL. Moreover, the force at which the bond lifetime peaks in assay [2] stood at 7 pN.
